The target in data set [1] is T1, RC3H1-N2 (RING+ROQ+CCCH Zn finger) (Homo sapiens, UniProt Q5TC82 2-452).
T1 sequence: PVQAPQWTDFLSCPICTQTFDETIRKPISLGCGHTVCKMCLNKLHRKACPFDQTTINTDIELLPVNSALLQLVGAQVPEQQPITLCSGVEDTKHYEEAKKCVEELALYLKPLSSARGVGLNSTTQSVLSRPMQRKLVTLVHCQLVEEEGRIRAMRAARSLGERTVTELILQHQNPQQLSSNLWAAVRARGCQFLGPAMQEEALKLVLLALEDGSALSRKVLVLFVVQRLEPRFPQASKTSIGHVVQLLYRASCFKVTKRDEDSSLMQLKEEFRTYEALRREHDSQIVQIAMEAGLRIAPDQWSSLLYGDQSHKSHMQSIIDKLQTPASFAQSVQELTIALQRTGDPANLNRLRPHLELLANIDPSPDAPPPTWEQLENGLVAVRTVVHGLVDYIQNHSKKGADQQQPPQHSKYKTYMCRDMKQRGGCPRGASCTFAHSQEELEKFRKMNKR
In words: EMSA; EMSA: 20 mM Tris-HCl pH 7.5, 50 mM KCl, 5 mM MgCl2, 20 uM ZnSO4, 10% glycerol, 2 mM DTT, 0.05 mg/ml BSA, 5 ug/ml heparin; 50 fmol RNA in 20 ul, room temperature. A general note: A gel shift assay detects complexes by their altered migration in electrophoresis.

Data set [2] concerns the target T1, RC3H1-N2 (RING+ROQ+CCCH Zn finger). In words: EMSA; complex formation seemed independent of the Zn finger; EMSA: 20 mM Tris-HCl pH 7.5, 50 mM KCl, 5 mM MgCl2, 20 uM ZnSO4, 10% glycerol, 2 mM DTT, 0.05 mg/ml BSA, 5 ug/ml heparin; 50 fmol RNA in 20 ul, room temperature.
Another data set deals with T2, RC3H1-N1 (RING+ROQ) (Homo sapiens, UniProt Q5TC82 2-399).
T2 sequence: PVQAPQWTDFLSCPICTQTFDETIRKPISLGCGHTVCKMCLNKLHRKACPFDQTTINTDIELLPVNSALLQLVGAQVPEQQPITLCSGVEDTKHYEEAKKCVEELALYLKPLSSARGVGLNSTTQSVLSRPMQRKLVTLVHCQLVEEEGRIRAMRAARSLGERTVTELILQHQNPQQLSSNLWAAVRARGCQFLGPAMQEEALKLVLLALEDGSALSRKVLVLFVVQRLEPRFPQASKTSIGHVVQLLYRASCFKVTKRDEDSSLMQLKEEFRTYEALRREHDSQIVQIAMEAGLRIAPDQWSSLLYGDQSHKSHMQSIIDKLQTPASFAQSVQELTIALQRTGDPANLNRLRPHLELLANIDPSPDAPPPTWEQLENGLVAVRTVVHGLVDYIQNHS
In words: EMSA; EMSA: 20 mM Tris-HCl pH 7.5, 50 mM KCl, 5 mM MgCl2, 20 uM ZnSO4, 10% glycerol, 2 mM DTT, 0.05 mg/ml BSA, 5 ug/ml heparin; 50 fmol RNA in 20 ul, room temperature.

Data set [3] has as its target T1, RC3H1-N2 (RING+ROQ+CCCH Zn finger). In words: EMSA; higher affinity than the 21-nt hairpin; EMSA: 20 mM Tris-HCl pH 7.5, 50 mM KCl, 5 mM MgCl2, 20 uM ZnSO4, 10% glycerol, 2 mM DTT, 0.05 mg/ml BSA, 5 ug/ml heparin; 50 fmol RNA in 20 ul, room temperature.
The target is the same in data set [4]. In words: EMSA; virtually unaffected vs WT; EMSA: 20 mM Tris-HCl pH 7.5, 50 mM KCl, 5 mM MgCl2, 20 uM ZnSO4, 10% glycerol, 2 mM DTT, 0.05 mg/ml BSA, 5 ug/ml heparin; 50 fmol RNA in 20 ul, room temperature.

On to CCUCCCCCCCUGCCCCCCAGC (ssRNA) [Mut3 (21 nt) control], for which the binding result in data set [1] was “no binding”.
Regarding AUUUCUGUGAAAU (structured_RNA) [ICOS (13 nt) CDE-like stem-loop], the binding result (in data set [2]; in the data set with RC3H1-N1 (RING+ROQ)) was “binds” in each case.
As for AUAUAUAAUAUACCCUUACAUUAUGUAUGAGGGAUUU (structured_RNA) [A20 (37 nt) ARE-stem-loop], the binding result in data set [3] is “binds”.
Regarding CCCUUACAUAAUGUAUGAGGG (structured_RNA) [Mut1 (21 nt)], the binding result in data set [4] is recorded as “binds”.
On to CCCUUACAUUAUGUAUGAGGG (structured_RNA) [A20 (21 nt) stem-loop WT], for which, in data set [1], the binding result is listed as “binds”.

(Values after paper PMC4510711.)
